{
  "source": "patent US20060252916A1",
  "about": "“Modified glucagon-like peptide-1 analogs” (ELI LILLY AND COMPANY, priority 2002, published 2006)",
  "molecular_target": "T1, human GLP-1 receptor (Homo sapiens, UniProt P43220)",
  "T1 construct": "expressed in transfected cells; host or cells: HEK-293 Aurora CRE-BLAM cells",
  "T1 sequence (P43220 24-463)": "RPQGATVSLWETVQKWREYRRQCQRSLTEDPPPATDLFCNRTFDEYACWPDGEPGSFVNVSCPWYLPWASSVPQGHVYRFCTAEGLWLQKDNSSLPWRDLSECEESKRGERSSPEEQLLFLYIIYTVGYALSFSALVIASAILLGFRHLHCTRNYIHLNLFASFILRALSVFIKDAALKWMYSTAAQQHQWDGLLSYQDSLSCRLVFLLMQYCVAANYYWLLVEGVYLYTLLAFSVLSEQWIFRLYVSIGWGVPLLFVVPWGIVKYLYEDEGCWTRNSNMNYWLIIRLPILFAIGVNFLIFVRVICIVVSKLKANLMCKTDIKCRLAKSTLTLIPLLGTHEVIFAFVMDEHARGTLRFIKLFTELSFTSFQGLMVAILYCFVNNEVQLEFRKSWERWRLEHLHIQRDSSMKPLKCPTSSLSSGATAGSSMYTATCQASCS",
  "assay": "In vitro potency, CRE-BLAM fluorescence assay",
  "format": "cell-based",
  "conditions": "HEK-293 Aurora CRE-BLAM cells expressing the human GLP-1 receptor; 5 hours incubation; control Val^8-GLP-1(7-37)OH",
  "protocol": "“In vitro potency” as used herein is the measure of the ability of a peptide to activate the GLP-1 receptor in a cell-based assay. In vitro potency is expressed as the “EC50” which is the effective concentration of compound that results in 50% activity in a single dose-response experiment. For the purposes of the present invention, in vitro potency is determined using a fluorescence assay that employs HEK-293 Aurora CRE-BLAM cells that stably express the human GLP-1 receptor. These HEK-293 cells have stably integrated a DNA vector having a cAMP response element (CRE) driving expression of the β-lactamase (BLAM) gene. The interaction of a GLP-1 agonist with the receptor initiates a signal that results in activation of the cAMP response element and subsequent expression of β-lactamase. The β-lactamase CCF2/AM substrate that emits fluorescence when it is cleaved by β-lactamase (Aurora Biosciences Corp.) can then be added to cells that have been exposed to a specific amount of GLP-1 agonist to provide a measure of GLP-1 agonist potency. […]\nHEK-293 Aurora CRE-BLAM cells expressing the human GLP-1 receptor are seeded at 20,000 to 40,000 cells/well/100 μl into a 96 well black clear bottom plate. […] Generally, fourteen dilutions containing from […] to 30 nanomolar GLP-1 compound were used to generate a dose response curve from which EC50 values could be determined. […]",
  "note": "No end group written: not given here.",
  "data": [
    {"substance": "GLP-1 compound-HSA conjugate of Example 3: Human serum albumin conjugate of the lysine-modified GLP-1 compound SEQ ID NO:22 of Example 3 (HVEGTFTSDVSSYLEEQAAKEFIAWLIKGRGK(3‑(2-pyridyldithio)propanamide)-NH2; also: conjugated to human serum albumin)", "values": [
      {"measurement": "EC50 values compared with Val^8-GLP-1(7-37)OH", "value": "about the same as the activity of Val^8-GLP-1(7-37)OH"}
    ]}
  ]
}
